Measured values as given in patent US20040229265A1.

Key:
[1] = biological target: CXCR4 (chemokine receptor CXCR-4) on PM1 cells; assay: flow cytometry, PE-conjugated isotype control on PM1 cells (non-specific fluorescence)
[2] = system: Rev peptide (Rev34-50, RhdRev) (HIV-1); assay: FP; conditions: 10 nM tracer titrated with RNA, 85 mM NaCl, 2 mM KCl, 0.5 mM CaCl2, 0.5 mM MgCl2, 10 mM HEPES pH 7.5
[3] = system: Rev34-50 peptide (HIV-1); conditions: CITED natural ligand affinity quoted for comparison, method not stated; cited from earlier work
[4] = system: Tat49-57 peptide (HIV-1); conditions: CITED natural ligand affinity quoted for comparison, method not stated; cited from earlier work
[5] = biological target: CXCR4 (chemokine receptor CXCR-4) on PM1 cells; assay: flow cytometry, PE-12G5 alone on PM1 cells, 30 min at 4° C.

CXCR4 (chemokine receptor CXCR-4) on PM1 cells, sequence (P61073 whole entry): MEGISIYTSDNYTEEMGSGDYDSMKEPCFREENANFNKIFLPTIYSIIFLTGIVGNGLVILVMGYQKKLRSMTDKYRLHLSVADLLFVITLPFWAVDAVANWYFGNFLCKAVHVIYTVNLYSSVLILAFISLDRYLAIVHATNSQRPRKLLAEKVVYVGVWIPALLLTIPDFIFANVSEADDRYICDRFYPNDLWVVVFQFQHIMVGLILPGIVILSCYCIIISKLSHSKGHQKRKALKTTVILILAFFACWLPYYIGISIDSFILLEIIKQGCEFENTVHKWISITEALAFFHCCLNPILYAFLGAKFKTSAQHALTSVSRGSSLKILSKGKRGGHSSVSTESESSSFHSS

PE-conjugated isotype control mAb (antibody)
MFI (median fluorescence intensity) [1]: 30 MFI

RRE IIB RNA
Kd ([2]; text gives 16 nM): 16.6 nM | Kd [3]: 40 nM

TAR RNA
Kd ([2]; table unit taken from text (7 nM)): 7.3 nM | Kd [4]: 12 nM

anti-CXCR4 mAb, 12G5 (PharMingen, San Diego, Calif.) conjugated to phycoerithrine (PE) (antibody)
MFI (median fluorescence intensity) [5]: 451 MFI
